Tested on: CC(=O)N(O)CCCC[C@H](N)C(=O)O
Test: purified protein
Conditions: 2 mM citrate, 2 mM ATP, 15 mM MgCl2, pH 7.5, 37 °C, apparent

“hvKP IucA (Klebsiella pneumoniae subsp. pneumoniae)” gave a Km of 790 ± 20 µM, a kcat of 0.85 ± 0.02 s⁻¹ and a kcat/Km of 1080 M⁻¹ s⁻¹.
